Test results: US20200385445A1

Experiments:
[1] = molecular target: mouse PVRL2 splice variant 2 (sv2) over-expressed on HEK293 cells (RC-335) (mouse) (UniProt P32507); experiment: FACS dose response on HEK293 OX mouse PVRL2
[2] = molecular target: mouse PVRL2 splice variant 1 (sv1) over-expressed on HEK293 cells (RC-334) (mouse) (UniProt P32507); experiment: FACS on HEK293 OX mouse PVRL2 sv1
[3] = molecular target: mouse PVRL2 endogenously expressed on B16-F10 cells (mouse) (UniProt P32507); experiment: FACS dose response on B16-F10 cells
mouse PVRL2 endogenously expressed on B16-F10 cells (mouse), sequence (P32507 32-530): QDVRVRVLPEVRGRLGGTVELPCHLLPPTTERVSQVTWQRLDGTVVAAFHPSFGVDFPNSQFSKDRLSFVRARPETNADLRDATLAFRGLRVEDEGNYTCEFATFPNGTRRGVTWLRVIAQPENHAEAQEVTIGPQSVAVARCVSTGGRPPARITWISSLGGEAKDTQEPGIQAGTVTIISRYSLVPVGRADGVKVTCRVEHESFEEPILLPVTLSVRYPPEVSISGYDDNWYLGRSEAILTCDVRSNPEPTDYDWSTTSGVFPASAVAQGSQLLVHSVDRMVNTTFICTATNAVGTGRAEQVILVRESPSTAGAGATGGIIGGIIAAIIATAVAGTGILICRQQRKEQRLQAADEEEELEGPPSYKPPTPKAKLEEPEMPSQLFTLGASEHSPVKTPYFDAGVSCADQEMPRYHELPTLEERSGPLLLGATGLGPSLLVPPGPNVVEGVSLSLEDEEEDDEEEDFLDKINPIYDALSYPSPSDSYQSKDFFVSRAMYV

[4] = molecular target: mouse PVRIG over-expressed on HEK293 cells (RC-287; PVRIG-FLAG RC-286) (mouse); experiment: FACS on cells OX mouse PVRIG, preliminary data
[5] = molecular target: mouse PVRIG over-expressed on HEK293 cells (RC-287; PVRIG-FLAG RC-286) (mouse); experiment: FACS on HEK293 OX mouse PVRIG, 60 ug/ml, other of two sources
[6] = molecular target: mouse PVRIG over-expressed on HEK293 cells (RC-287; PVRIG-FLAG RC-286) (mouse); experiment: FACS on cells OX mouse PVRIG
[7] = molecular target: mouse PVRIG over-expressed on HEK293 cells (RC-287; PVRIG-FLAG RC-286) (mouse); experiment: FACS on HEK293 OX mouse PVRIG, 60 ug/ml, one of two sources

mouse PVRL2-his (R&D, 3869-N2; Sino Biological, 50318-M08H), sequence (P32507 32-351 limits assumed, stated change not applied): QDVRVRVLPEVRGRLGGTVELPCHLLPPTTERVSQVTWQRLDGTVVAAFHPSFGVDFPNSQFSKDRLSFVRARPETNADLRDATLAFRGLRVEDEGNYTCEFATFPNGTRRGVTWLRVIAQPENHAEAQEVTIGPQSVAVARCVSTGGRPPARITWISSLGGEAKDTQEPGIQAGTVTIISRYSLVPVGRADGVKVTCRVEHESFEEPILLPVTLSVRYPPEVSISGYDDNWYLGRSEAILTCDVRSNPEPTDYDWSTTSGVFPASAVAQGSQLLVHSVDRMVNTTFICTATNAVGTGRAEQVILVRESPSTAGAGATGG
mouse PVRL2 splice variant 1 (sv1) over-expressed on HEK293 cells (RC-334) (mouse), sequence (P32507 32-530, change not shown): as the sequence (P32507 32-530) above
custom Fc-fused mouse PVRL2 (GenScript), sequence (P32507 32-351 limits assumed): as the sequence (P32507 32-351 limits assumed, stated change not applied) above
mouse PVRL2 splice variant 2 (sv2) over-expressed on HEK293 cells (RC-335) (mouse), sequence (P32507 32-530, change not shown): as the sequence (P32507 32-530) above

PVRIG mECD-mIg fusion protein (ECD of mouse PVRIG fused to the Fc of mouse IgG2a) (Fc fusion)
concentration at saturation of binding [1]: 12.5 µg/mL | fold binding vs empty vector cells [2]: 6 to 11 fold | concentration at saturation of binding [3]: 12.5 µg/mL

custom Fc-fused mouse PVRL2 (GenScript) (from UniProt P32507 32-351) (Fc fusion)
fold binding [4]: 5 fold

mouse PVRL2-his (R&D, 3869-N2; Sino Biological, 50318-M08H) (from UniProt P32507 32-351) (ligand)
fold binding vs empty vector cells [5]: 3 to 4 fold | fold binding [6]: 2 to 3 fold | fold binding vs empty vector cells [7]: 2 fold
